Results on one molecule are retold here after article PMC9014876, “Vault RNA1–1 riboregulates the autophagic function of p62 by binding to lysine 7 and arginine 21, both of which are critical for p62 oligomerization”.

This data set deals with MBP-p62 WT (Homo sapiens, UniProt Q13501 1-440). In words: EMSA; 2.5 mM Mg2+; bacterial tRNA and BSA; EMSA: 20 mM HEPES pH 7.9, 100 mM KCl, 2.5 mM MgCl2, 5 mM DTT, 0.2 mM EDTA, 20% glycerol, 1 mg/mL BSA, 150 nM tRNA, room temperature; NMR: 20 mM MES pH 6.5, 100. The settings on record: protein: recombinant; tags: MBP; label: 32P (internal alpha-UTP for EMSA; end-labelled for footprinting); base-paired terminal stem, central flexible loop. For orientation: In EMSA bound probe runs differently from free probe, usually more slowly.

B1: vault RNA1-1 WT (structured_RNA)
RNA: GGCUGGCUUUAGCUCAGCGGUUACUUCGACAGUUCUUUAAUUGAAACAAGCAACCUGUCUGGGUUGUUCGAGACCCGCGGGCGCUCUCCAGUCCUUU
As for B1, the binding result is “binds”.
